This is an account of results in paper PMC9357639.

For assay [1], the target named is STAT3 (UniProt P40763). As to the kind of experiment: size exclusion chromatography, fractions immunoblotted. The settings on record: sites T622.
In assay [2] the target is STAT3 (UniProt P40763). Nature of the assay: anti-Flag co-IP, Flag-STAT3 with HA-STAT3. The settings on record: reference: wild type STAT3; sites T622.
The target in assay [3] is STAT3 (UniProt P40763). As to the kind of experiment: anti-Flag IP of purified Flag-STAT3 and GST-STAT3. The note with it: reference: wild type GST- and Flag-STAT3; sites T622.

STAT3, sequence (P40763 whole entry, change not shown): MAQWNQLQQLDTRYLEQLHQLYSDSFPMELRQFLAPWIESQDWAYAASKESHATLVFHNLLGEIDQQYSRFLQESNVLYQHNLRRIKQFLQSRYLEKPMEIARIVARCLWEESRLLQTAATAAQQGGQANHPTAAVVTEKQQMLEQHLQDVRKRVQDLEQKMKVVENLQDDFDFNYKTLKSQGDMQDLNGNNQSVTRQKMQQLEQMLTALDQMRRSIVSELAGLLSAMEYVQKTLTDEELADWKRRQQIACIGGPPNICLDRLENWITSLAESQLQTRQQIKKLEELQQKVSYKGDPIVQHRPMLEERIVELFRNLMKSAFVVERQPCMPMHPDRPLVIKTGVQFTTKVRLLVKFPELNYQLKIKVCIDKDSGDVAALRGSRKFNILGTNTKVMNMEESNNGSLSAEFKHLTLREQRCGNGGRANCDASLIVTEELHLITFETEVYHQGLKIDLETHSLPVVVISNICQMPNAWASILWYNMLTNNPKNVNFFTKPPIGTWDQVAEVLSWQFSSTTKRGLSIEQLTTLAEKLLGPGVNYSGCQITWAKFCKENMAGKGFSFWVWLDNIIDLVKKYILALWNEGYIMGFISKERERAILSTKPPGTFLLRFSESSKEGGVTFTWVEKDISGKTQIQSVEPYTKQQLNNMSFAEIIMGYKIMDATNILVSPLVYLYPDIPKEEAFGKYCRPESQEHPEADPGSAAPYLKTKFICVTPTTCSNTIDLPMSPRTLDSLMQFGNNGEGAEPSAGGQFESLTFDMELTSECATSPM

“STAT3 (from UniProt P40763) Flag-STAT3 T622A”: the “binding against the reference” value with STAT3 [1] (reference: wild type Flag-STAT3) is listed as “stronger”.
STAT3 (from UniProt P40763) STAT3 T622A: in the assay with STAT3 [2], the “binding against the reference” value was “stronger”.
In the case of “STAT3 (from UniProt P40763) His-MST2 treated”, the “binding against the reference” value with STAT3 [1] (reference: untreated WT Flag-STAT3) is “same”.
As to “STAT3 (from UniProt P40763) T622A GST- and Flag-STAT3”, the “binding against the reference” value in the assay with STAT3 [3] was “stronger”.
